The text below walks through data of patent US20050054106.

The target in this data set is T1, PhiC31 integrase (Streptomyces phage PhiC31) (UniProt Q9T221).
T1 sequence: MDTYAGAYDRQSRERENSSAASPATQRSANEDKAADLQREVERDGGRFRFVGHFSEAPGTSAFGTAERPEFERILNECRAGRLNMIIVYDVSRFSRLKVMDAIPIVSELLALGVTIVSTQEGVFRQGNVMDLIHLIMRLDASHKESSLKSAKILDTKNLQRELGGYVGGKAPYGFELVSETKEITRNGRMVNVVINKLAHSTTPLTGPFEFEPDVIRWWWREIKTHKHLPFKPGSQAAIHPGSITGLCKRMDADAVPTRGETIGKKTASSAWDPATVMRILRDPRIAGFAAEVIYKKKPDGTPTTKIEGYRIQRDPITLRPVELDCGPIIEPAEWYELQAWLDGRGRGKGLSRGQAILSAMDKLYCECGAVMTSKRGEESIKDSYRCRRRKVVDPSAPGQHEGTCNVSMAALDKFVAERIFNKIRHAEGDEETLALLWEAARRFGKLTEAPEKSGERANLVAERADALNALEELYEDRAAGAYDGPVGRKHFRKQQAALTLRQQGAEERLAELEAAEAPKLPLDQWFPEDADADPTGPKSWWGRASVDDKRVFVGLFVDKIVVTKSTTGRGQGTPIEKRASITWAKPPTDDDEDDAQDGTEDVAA
Kind of data set: cell_activity. The settings on record: S. pombe FY527attP, pLT45+pLT43; 63 without integrase, 120 with thiamine repression.

Consider “attB (pLT45, 500 bp fragment) ; attP 84 bp (pLT44)”, for which the activity (transformants per 10^7 cells) amounted to 1100.
